Measurements published in patent US9266930.
Read-outs that look alike come from different tables or passages of the source.

Tests used:
HLA-A*1101 (human) [1] = biological target: HLA-A*1101 (human)
HLA-A*1101 (human) [2] = test: competition with 125I-labeled probe peptide for purified HLA, gel filtration
HLA-A*6801 (human) [3] = test: as above
HLA-A*3101 (human) [4] = test: as above
HLA-A*3301 (human) [5] = test: as above
HLA-A*1101 (human) [6] = biological target: HLA-A*1101 (human); remark: listed apart in the source
HLA-A*1101 (Human) [7] = biological target: HLA-A*1101 (Human)
HLA-A*0301 (human) [8] = test: competition with 125I-labeled probe peptide for purified HLA, gel filtration
HLA-A*0301 (human) [9] = biological target: HLA-A*0301 (human)
HLA-A*3101 (human) [10] = biological target: HLA-A*3101 (human)
HLA-A*3301 (human) [11] = biological target: HLA-A*3301 (human)
HLA-A*6801 (human) [12] = biological target: HLA-A*6801 (human)

For “[…] (LSA position 40, 10-mer) (peptide; other documents disagree on this pair)”, the binding affinity ratio (IC50 of standard peptide / IC50 of test peptide) (HLA-A*1101 (human) [1]) was 0.0002.
Substance “[…] (Pf LSA position 1751, 9-mer) (peptide; other documents disagree on this pair)” has a binding affinity ratio (IC50 of standard peptide / IC50 of test peptide) (HLA-A*1101 (human) [1]) of 0.0018.
In the case of “[…] (LSA position 1750, 10-mer) (peptide; other documents disagree on this pair)”, the binding affinity ratio (IC50 of standard peptide / IC50 of test peptide) (HLA-A*1101 (human) [1]) was 0.0002.
“[…] (P. falciparum LSA, position 1713, 10 amino acids) (peptide; other documents disagree on this pair)” was tested, and the binding affinity ratio (relative to standard peptide) (HLA-A*1101 (human) [2]) was 0.0002, the binding affinity ratio (relative to standard peptide) (HLA-A*6801 (human) [3]) was 0.0046 and the binding affinity ratio (relative to standard peptide) (HLA-A*3101 (human) [4]) was 0.0009. For the same substance, the binding affinity ratio (relative to standard peptide) (HLA-A*3301 (human) [5]) was 0.0055.
For “[…] (EXP position 84, 10 amino acids) (peptide; other documents disagree on this pair)”, the binding affinity ratio (IC50 of standard peptide / IC50 of test peptide) (HLA-A*0201 (Human)) was 0.0059.
“[…] (Pf LSA 1825, 10-mer A03 supermotif peptide) (peptide; other documents disagree on this pair)” was tested, and the binding affinity ratio (IC50 of standard peptide / IC50 of test peptide) (HLA-A*1101 (human) [6]) was 0.0009.
Work on “[…] (LSA, position 68, 9 amino acids) (peptide; other documents disagree on this pair)” yielded a binding affinity ratio (IC50 of standard peptide / IC50 of test peptide) (HLA-A*1101 (Human) [7]) of 0.0038.
Work on “[…] (P. falciparum LSA, position 1609, 9 amino acids) (peptide; other documents disagree on this pair)” yielded a binding affinity ratio (relative to standard peptide) (HLA-A*1101 (human) [2]) of 0.0002 and a binding affinity ratio (relative to standard peptide) (HLA-A*0301 (human) [8]) of 0.0001.
“[…] (P. falciparum LSA, position 1388, 9 amino acids) (peptide; other documents disagree on this pair)” was tested, and the binding affinity ratio (relative to standard peptide) (HLA-A*1101 (human) [2]) was 0.0002 and the binding affinity ratio (relative to standard peptide) (HLA-A*0301 (human) [8]) was 0.0001.
Substance “[…] (LSA position 1726, 10-mer) (peptide; other documents disagree on this pair)” has a binding affinity ratio (IC50 of standard peptide / IC50 of test peptide) (HLA-A*1101 (human) [1]) of 0.0002.
Substance “[…] (EXP position 83, 10 amino acids) (peptide; other documents disagree on this pair)” has a binding affinity ratio (IC50 of standard peptide / IC50 of test peptide) (HLA-A*0201 (Human)) of 0.038.
Work on “[…] (LSA, position 1834, 10 amino acids) (peptide; other documents disagree on this pair)” yielded a binding affinity ratio (IC50 of standard peptide / IC50 of test peptide) (HLA-A*1101 (Human) [7]) of 0.0007.
With “[…] (Pf LSA 1854, 10-mer A03 supermotif peptide) (peptide; other documents disagree on this pair)” the binding affinity ratio (IC50 of standard peptide / IC50 of test peptide) (HLA-A*1101 (human) [6]) was 0.049.
“[…] (Pf LSA 16, 9-mer A03 supermotif peptide) (peptide; other documents disagree on this pair)” gave a binding affinity ratio (IC50 of standard peptide / IC50 of test peptide) (HLA-A*1101 (human) [6]) of 0.01 and a binding affinity ratio (IC50 of standard peptide / IC50 of test peptide) (HLA-A*0301 (human) [9]) of 0.026.
In the case of “[…] (Pf LSA 1834, 10-mer A03 supermotif peptide) (peptide; other documents disagree on this pair)”, the binding affinity ratio (IC50 of standard peptide / IC50 of test peptide) (HLA-A*1101 (human) [6]) was 0.0007, the binding affinity ratio (IC50 of standard peptide / IC50 of test peptide) (HLA-A*3101 (human) [10]) was 0.0042 and the binding affinity ratio (IC50 of standard peptide / IC50 of test peptide) (HLA-A*3301 (human) [11]) was 0.0009. The binding affinity ratio (IC50 of standard peptide / IC50 of test peptide) (HLA-A*0301 (human) [9]) was 0.0081.
“[…] (LSA, position 1825, 10 amino acids) (peptide; other documents disagree on this pair)” showed a binding affinity ratio (IC50 of standard peptide / IC50 of test peptide) (HLA-A*1101 (Human) [7]) of 0.0009.
In the case of “[…] (LSA, position 1854, 9 amino acids) (peptide; other documents disagree on this pair)”, the binding affinity ratio (IC50 of standard peptide / IC50 of test peptide) (HLA-A*1101 (Human) [7]) was 0.034.
With “[…] (LSA, position 1704, 9 amino acids) (peptide; other documents disagree on this pair)” the binding affinity ratio (IC50 of standard peptide / IC50 of test peptide) (HLA-A*1101 (Human) [7]) was 0.0007.
“[…] (Pf LSA 68, 9-mer A03 supermotif peptide) (peptide; other documents disagree on this pair)” gave a binding affinity ratio (IC50 of standard peptide / IC50 of test peptide) (HLA-A*1101 (human) [6]) of 0.0038 and a binding affinity ratio (IC50 of standard peptide / IC50 of test peptide) (HLA-A*0301 (human) [9]) of 0.0028.
“[…] (LSA position 1703, 10-mer) (peptide; other documents disagree on this pair)” gave a binding affinity ratio (IC50 of standard peptide / IC50 of test peptide) (HLA-A*1101 (human) [1]) of 0.0002.
In the case of “[…] (LSA position 49, 9-mer) (peptide; other documents disagree on this pair)”, the binding affinity ratio (IC50 of standard peptide / IC50 of test peptide) (HLA-A*1101 (human) [1]) was 0.037.
In the case of “[…] (P. falciparum LSA, position 1575, 9 amino acids) (peptide; other documents disagree on this pair)”, the binding affinity ratio (relative to standard peptide) (HLA-A*1101 (human) [2]) was 0.0002 and the binding affinity ratio (relative to standard peptide) (HLA-A*0301 (human) [8]) was 0.0001.
“[…] (LSA position 1387, 10-mer) (peptide; other documents disagree on this pair)” showed a binding affinity ratio (IC50 of standard peptide / IC50 of test peptide) (HLA-A*1101 (human) [1]) of 0.0002.
“[…] (P. falciparum EXP-1, position 79, 10 amino acids) (peptide; other documents disagree on this pair)” gave a binding affinity ratio (IC50 of standard peptide / IC50 of test peptide) (HLA-A*0201 (Human)) of 0.0022.
For “[…] (P. falciparum LSA, position 1676, 9-mer) (peptide; other documents disagree on this pair)”, the binding affinity ratio (IC50 of standard peptide / IC50 of test peptide) (HLA-A*1101 (human) [1]) was 0.0013.
“[…] (LSA position 49, 10-mer) (peptide; other documents disagree on this pair)” was tested, and the binding affinity ratio (IC50 of standard peptide / IC50 of test peptide) (HLA-A*1101 (human) [1]) was 0.0018.
Work on “[…] (Pf LSA 1631, 10-mer A03 supermotif peptide) (peptide; other documents disagree on this pair)” yielded a binding affinity ratio (IC50 of standard peptide / IC50 of test peptide) (HLA-A*3101 (human) [10]) of 0.0086 and a binding affinity ratio (IC50 of standard peptide / IC50 of test peptide) (HLA-A*3301 (human) [11]) of 0.0011.
With “[…] (P. falciparum LSA, position 1660, 10 amino acids) (peptide; other documents disagree on this pair)” the binding affinity ratio (relative to standard peptide) (HLA-A*1101 (human) [2]) was 0.0002, the binding affinity ratio (relative to standard peptide) (HLA-A*6801 (human) [3]) was 0.0029 and the binding affinity ratio (relative to standard peptide) (HLA-A*3101 (human) [4]) was 0.0009. It also gave a binding affinity ratio (relative to standard peptide) (HLA-A*3301 (human) [5]) of 0.0008 and a binding affinity ratio (relative to standard peptide) (HLA-A*0301 (human) [8]) of 0.0001.
“[…] (LSA, position 1854, 10 amino acids) (peptide; other documents disagree on this pair)” gave a binding affinity ratio (IC50 of standard peptide / IC50 of test peptide) (HLA-A*1101 (Human) [7]) of 0.049.
Substance “[…] (LSA position 1591, 10-mer) (peptide; other documents disagree on this pair)” has a binding affinity ratio (IC50 of standard peptide / IC50 of test peptide) (HLA-A*1101 (human) [1]) of 0.0002.
Substance “[…] (Pf LSA 1830, 10-mer A03 supermotif peptide) (peptide; other documents disagree on this pair)” has a binding affinity ratio (IC50 of standard peptide / IC50 of test peptide) (HLA-A*0301 (human) [9]) of 0.0004.
“[…] (LSA position 1855, 10-mer) (peptide; other documents disagree on this pair)” gave a binding affinity ratio (IC50 of standard peptide / IC50 of test peptide) (HLA-A*1101 (human) [1]) of 0.0045.
With “[…] (P. falciparum EXP-1, position 80, 9 amino acids) (peptide; other documents disagree on this pair)” the binding affinity ratio (IC50 of standard peptide / IC50 of test peptide) (HLA-A*0201 (Human)) was 0.021.
For “[…] (LSA position 41, 9-mer) (peptide; other documents disagree on this pair)”, the binding affinity ratio (IC50 of standard peptide / IC50 of test peptide) (HLA-A*1101 (human) [1]) was 0.003.
“[…] (LSA position 1574, 10-mer) (peptide; other documents disagree on this pair)” showed a binding affinity ratio (IC50 of standard peptide / IC50 of test peptide) (HLA-A*1101 (human) [1]) of 0.0002.
Substance “[…] (Pf LSA 1693, 9-mer A03 supermotif peptide) (peptide; other documents disagree on this pair)” has a binding affinity ratio (IC50 of standard peptide / IC50 of test peptide) (HLA-A*6801 (human) [12]) of 0.0054.
“[…] (Pf LSA 1704, 9-mer A03 supermotif peptide) (peptide; other documents disagree on this pair)” was tested, and the binding affinity ratio (IC50 of standard peptide / IC50 of test peptide) (HLA-A*1101 (human) [6]) was 0.0007, the binding affinity ratio (IC50 of standard peptide / IC50 of test peptide) (HLA-A*6801 (human) [12]) was 0.32 and the binding affinity ratio (IC50 of standard peptide / IC50 of test peptide) (HLA-A*3101 (human) [10]) was 0.0025. It also gave a binding affinity ratio (IC50 of standard peptide / IC50 of test peptide) (HLA-A*3301 (human) [11]) of 0.0043.
With “[…] (P. falciparum SSP2, position 31, 9 amino acids) (peptide; other documents disagree on this pair)” the binding affinity ratio (relative to standard peptide) (HLA-A*1101 (human) [6]) was 0.0002 and the binding affinity ratio (relative to standard peptide) (HLA-A*0301 (human) [9]) was 0.0005.
“[…] (LSA position 520, 10-mer) (peptide; other documents disagree on this pair)” was tested, and the binding affinity ratio (IC50 of standard peptide / IC50 of test peptide) (HLA-A*1101 (human) [1]) was 0.0002.
Work on “[…] (Pf LSA 61, 10-mer A03 supermotif peptide) (peptide; other documents disagree on this pair)” yielded a binding affinity ratio (IC50 of standard peptide / IC50 of test peptide) (HLA-A*0301 (human) [9]) of 0.0004.
“[…] (P. falciparum LSA, position 1626, 10 amino acids) (peptide; other documents disagree on this pair)” gave a binding affinity ratio (relative to standard peptide) (HLA-A*1101 (human) [2]) of 0.0002 and a binding affinity ratio (relative to standard peptide) (HLA-A*0301 (human) [8]) of 0.0001.
For “[…] (LSA position 1183, 10-mer) (peptide; other documents disagree on this pair)”, the binding affinity ratio (IC50 of standard peptide / IC50 of test peptide) (HLA-A*1101 (human) [1]) was 0.0002.
“[…] (Pf LSA 1854, 9-mer A03 supermotif peptide) (peptide; other documents disagree on this pair)” showed a binding affinity ratio (IC50 of standard peptide / IC50 of test peptide) (HLA-A*1101 (human) [6]) of 0.034.
For “[…] (EXP position 84, 9 amino acids) (peptide; other documents disagree on this pair)”, the binding affinity ratio (IC50 of standard peptide / IC50 of test peptide) (HLA-A*0201 (Human)) was 0.035.
“[…] (LSA position 1703, 9-mer) (peptide; other documents disagree on this pair)” showed a binding affinity ratio (IC50 of standard peptide / IC50 of test peptide) (HLA-A*1101 (human) [1]) of 0.0027.
